# Measured values as given in US20250154231A1.
# Like-named read-outs stand apart in the source and are kept apart here.
# Key:
# Assay in all cases: cell-based or functional assay
# [1] = molecular target: SARS-CoV-2 Omicron BA.2 spike (S) protein, pseudovirus construct (SARS-CoV-2) (UniProt P0DTC2)
# [2] = molecular target: SARS-CoV-2 Victoria spike (S) protein (SARS-CoV-2) (UniProt P0DTC2)
# [3] = molecular target: SARS-CoV-2 Omicron BA.1.1 spike (S) protein, pseudovirus construct (SARS-CoV-2) (UniProt P0DTC2)
# [4] = molecular target: SARS-CoV-2 Omicron BA.1 spike (S) protein, pseudovirus construct (SARS-CoV-2) (UniProt P0DTC2)
# [5] = molecular target: SARS-CoV-2 Omicron BA.3 spike (S) protein, pseudovirus construct (SARS-CoV-2) (UniProt P0DTC2)
# [6] = molecular target: SARS-CoV-2 spike (S) protein, Omicron BA.2.75.2 (SARS-CoV-2) (UniProt P0DTC2)
# [7] = molecular target: SARS-CoV-2 spike (S) protein, Omicron BA.2.3.20 (SARS-CoV-2) (UniProt P0DTC2)
# [8] = molecular target: SARS-CoV-2 spike (S) protein, Omicron BA.2 (SARS-CoV-2) (UniProt P0DTC2)
# [9] = molecular target: SARS-CoV-2 spike (S) protein, Omicron BJ.1 (SARS-CoV-2) (UniProt P0DTC2)
# [10] = molecular target: SARS-CoV-2 spike (S) protein, Omicron BA.4/5 (SARS-CoV-2) (UniProt P0DTC2)
# [11] = molecular target: SARS-CoV-2 spike (S) protein, Omicron BA.4.6 (SARS-CoV-2) (UniProt P0DTC2)
# [12] = molecular target: SARS-CoV-2 spike (S) protein, Omicron BA.2.75 (SARS-CoV-2) (UniProt P0DTC2)
# [13] = molecular target: SARS-CoV-2 spike (S) protein, Victoria strain (SARS-CoV-2) (UniProt P0DTC2)
# [14] = molecular target: SARS-CoV-2 Beta spike (S) protein (SARS-CoV-2) (UniProt P0DTC2)
# [15] = molecular target: SARS-CoV-2 Delta spike (S) protein (SARS-CoV-2) (UniProt P0DTC2)
# [16] = molecular target: SARS-CoV-2 spike (S) protein, Omicron BA.2 (SARS-CoV-2) (UniProt P0DTC2); remark: listed apart in the source
# [17] = molecular target: SARS-CoV-2 spike (S) protein, Omicron BA.1 (SARS-CoV-2) (UniProt P0DTC2)
# [18] = molecular target: SARS-CoV-2 spike (S) protein, Omicron BA.3 (SARS-CoV-2) (UniProt P0DTC2)
# [19] = molecular target: SARS-CoV-2 spike (S) protein, Omicron BA.4/5 (SARS-CoV-2) (UniProt P0DTC2); remark: listed apart in the source
# [20] = molecular target: SARS-CoV-2 Omicron BA.1.1 spike (S) protein (SARS-CoV-2) (UniProt P0DTC2)
# [21] = molecular target: SARS-CoV-2 spike (S) protein, Omicron BA.4.6 (SARS-CoV-2) (UniProt P0DTC2); remark: listed apart in the source
# [22] = molecular target: SARS-CoV-2 spike (S) protein, Victoria strain (SARS-CoV-2) (UniProt P0DTC2); remark: listed apart in the source
# [23] = molecular target: SARS-CoV-2 Alpha spike (S) protein (SARS-CoV-2) (UniProt P0DTC2)
# [24] = molecular target: SARS-CoV-2 Omicron BA.2 spike (S) protein (SARS-CoV-2) (UniProt P0DTC2)
# [25] = molecular target: SARS-CoV-2 spike (S) protein, Omicron BA.1.1 (SARS-CoV-2) (UniProt P0DTC2)
# [26] = molecular target: SARS-CoV-2 Omicron BA.1 spike (S) protein of the live isolate (SARS-CoV-2) (UniProt P0DTC2)
# [27] = molecular target: SARS-CoV-2 Gamma spike (S) protein (SARS-CoV-2) (UniProt P0DTC2)
# [28] = molecular target: SARS-CoV-2 spike (S) protein, Omicron BA.2.75 (SARS-CoV-2) (UniProt P0DTC2); remark: listed apart in the source
substance,measurement,setting,value
Known Antibody F (ADG10),"IC50 (ug/ml), pseudovirus",[1],> 10 µg/mL
same,"IC50 (ug/ml), pseudovirus",[2],0.007 µg/mL
same,"IC50 (ug/ml), pseudovirus",[3],> 10 µg/mL
same,"IC50 (ug/ml), pseudovirus",[4],> 10 µg/mL
same,"IC50 (ug/ml), pseudovirus",[5],> 10 µg/mL
Known Antibody G (ADG20),"IC50 (ug/ml), pseudovirus",[1],> 10 µg/mL
same,"IC50 (ug/ml), pseudovirus",[2],0.003 µg/mL
same,"IC50 (ug/ml), pseudovirus",[3],0.253 µg/mL
same,"IC50 (ug/ml), pseudovirus",[4],0.348 µg/mL
same,"IC50 (ug/ml), pseudovirus",[5],> 10 µg/mL
Known Antibody H (ADG30),"IC50 (ug/ml), pseudovirus",[1],> 10 µg/mL
same,"IC50 (ug/ml), pseudovirus",[2],0.014 µg/mL
same,"IC50 (ug/ml), pseudovirus",[3],> 10 µg/mL
same,"IC50 (ug/ml), pseudovirus",[4],> 10 µg/mL
same,"IC50 (ug/ml), pseudovirus",[5],> 10 µg/mL
Known Antibody I (Ly-CoV-555),"IC50 (ug/ml), pseudovirus",[1],> 10 µg/mL
same,"IC50 (ug/ml), pseudovirus",[2],0.002 µg/mL
same,"IC50 (ug/ml), pseudovirus",[3],> 10 µg/mL
same,"IC50 (ug/ml), pseudovirus",[4],> 10 µg/mL
same,"IC50 (ug/ml), pseudovirus",[5],> 10 µg/mL
Known Antibody J (Ly-CoV16),"IC50 (ug/ml), pseudovirus",[1],> 10 µg/mL
same,"IC50 (ug/ml), pseudovirus",[2],0.014 µg/mL
same,"IC50 (ug/ml), pseudovirus",[3],> 10 µg/mL
same,"IC50 (ug/ml), pseudovirus",[4],> 10 µg/mL
same,"IC50 (ug/ml), pseudovirus",[5],> 10 µg/mL
Known Antibody K (S309),"IC50 (ug/ml), pseudovirus",[1],0.638 µg/mL
same,"IC50 (ug/ml), pseudovirus",[2],0.587 µg/mL
same,"IC50 (ug/ml), pseudovirus",[3],0.138 µg/mL
same,"IC50 (ug/ml), pseudovirus",[4],0.094 µg/mL
same,"IC50 (ug/ml), pseudovirus",[5],0.228 µg/mL
LY-CoV1404 (bebtelovimab) (antibody),"IC50, pseudoviral neutralization",[6],0.002 µg/mL
same,"IC50, pseudoviral neutralization",[7],0.018 µg/mL
same,"IC50, pseudoviral neutralization",[8],0.001 µg/mL
same,"IC50, pseudoviral neutralization",[9],> 10 µg/mL
same,"IC50, pseudoviral neutralization",[10],0.002 µg/mL
same,"IC50, pseudoviral neutralization",[11],0.001 µg/mL
same,"IC50, pseudoviral neutralization",[12],0.002 µg/mL
same,"IC50, pseudoviral neutralization",[13],0.001 µg/mL
Ly-CoV16 (antibody),"IC50, authentic virus neutralization",[14],> 10 µg/mL
same,"IC50, authentic virus neutralization",[15],0.012 µg/mL
same,"IC50, pseudoviral neutralization",[16],> 10 µg/mL
same,pseudovirus neutralisation IC50,[16],> 10 µg/mL
same,"IC50, pseudoviral neutralization",[17],> 10 µg/mL
same,pseudovirus neutralisation IC50,[17],> 10 µg/mL
same,"IC50, authentic virus neutralization",[2],0.034 µg/mL
same,"IC50, pseudoviral neutralization",[18],> 10 µg/mL
same,pseudovirus neutralisation IC50,[18],> 10 µg/mL
same,"IC50, pseudoviral neutralization",[19],> 10 µg/mL
same,pseudovirus neutralisation IC50,[19],> 10 µg/mL
same,"IC50, authentic virus neutralization",[20],> 10 µg/mL
same,"IC50, pseudoviral neutralization",[21],> 10 µg/mL
same,"IC50, pseudoviral neutralization",[22],0.014 µg/mL
same,pseudovirus neutralisation IC50,[22],0.014 µg/mL
same,"IC50, authentic virus neutralization",[23],3.23 µg/mL
same,"IC50, authentic virus neutralization",[24],> 10 µg/mL
same,"IC50, pseudoviral neutralization",[25],> 10 µg/mL
same,pseudovirus neutralisation IC50,[25],> 10 µg/mL
same,"IC50, authentic virus neutralization",[26],> 10 µg/mL
same,"IC50, authentic virus neutralization",[27],> 10 µg/mL
same,"IC50, pseudoviral neutralization",[6],> 10 µg/mL
same,"IC50, pseudoviral neutralization",[7],> 10 µg/mL
same,"IC50, pseudoviral neutralization",[9],> 10 µg/mL
same,"IC50, pseudoviral neutralization",[10],> 10 µg/mL
same,"IC50, pseudoviral neutralization",[11],> 10 µg/mL
same,"IC50, pseudoviral neutralization",[12],> 10 µg/mL
same,"IC50, pseudoviral neutralization",[13],0.014 µg/mL
same,pseudovirus neutralisation IC50,[28],> 10 µg/mL
Ly-CoV-555 (antibody),"IC50, authentic virus neutralization",[14],> 10 µg/mL
same,"IC50, authentic virus neutralization",[15],8.31 µg/mL
same,"IC50, authentic virus neutralization",[2],0.006 µg/mL
same,"IC50, authentic virus neutralization",[20],> 10 µg/mL
same,"IC50, authentic virus neutralization",[23],0.009 µg/mL
same,"IC50, authentic virus neutralization",[24],> 10 µg/mL
same,"IC50, authentic virus neutralization",[26],> 10 µg/mL
same,"IC50, authentic virus neutralization",[27],> 10 µg/mL
